Laboratory results: article PMC6299030, “An Allosteric-Probe for Detection of Alkaline Phosphatase Activity and Its Application in Immunoassay”

Target: Streptavidin (on Sepharose beads) (UniProt P22629 25-183)
Test: bead binding, flow cytometry and fluorescence microscopy; SA3 released from AP by lambda exo, no ALP; 70 mM Tris-HCl, 10 mM MgCl2, pH 8.0; 200 nM AP in 100 uL, 3 uL SA beads, 5 min at room temperature after enzyme steps at 37 C and 75 C inactivation
Conditions: protein: commercial; tags: immobilized on Sepharose beads; chain copies: 4; label: 5'-FAM; hairpin with bulge

Chain of Streptavidin (on Sepharose beads) (P22629 25-183): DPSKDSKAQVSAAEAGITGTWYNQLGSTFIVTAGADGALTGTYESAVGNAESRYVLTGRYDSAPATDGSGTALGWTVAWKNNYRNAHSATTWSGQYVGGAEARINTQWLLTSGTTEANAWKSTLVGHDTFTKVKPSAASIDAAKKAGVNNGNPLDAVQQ

B1: SA3 (structured_DNA)
DNA: ATTGACGCGTGTGACGCAACACTCAAT
binding result: binds
